Test results: article PMC11372217 (Nature Communications, 2024)

Target: His-PADI4 (human, UniProt Q9UM07 1-663)
Assay: pull-down

Sequence of His-PADI4 (Q9UM07 whole entry): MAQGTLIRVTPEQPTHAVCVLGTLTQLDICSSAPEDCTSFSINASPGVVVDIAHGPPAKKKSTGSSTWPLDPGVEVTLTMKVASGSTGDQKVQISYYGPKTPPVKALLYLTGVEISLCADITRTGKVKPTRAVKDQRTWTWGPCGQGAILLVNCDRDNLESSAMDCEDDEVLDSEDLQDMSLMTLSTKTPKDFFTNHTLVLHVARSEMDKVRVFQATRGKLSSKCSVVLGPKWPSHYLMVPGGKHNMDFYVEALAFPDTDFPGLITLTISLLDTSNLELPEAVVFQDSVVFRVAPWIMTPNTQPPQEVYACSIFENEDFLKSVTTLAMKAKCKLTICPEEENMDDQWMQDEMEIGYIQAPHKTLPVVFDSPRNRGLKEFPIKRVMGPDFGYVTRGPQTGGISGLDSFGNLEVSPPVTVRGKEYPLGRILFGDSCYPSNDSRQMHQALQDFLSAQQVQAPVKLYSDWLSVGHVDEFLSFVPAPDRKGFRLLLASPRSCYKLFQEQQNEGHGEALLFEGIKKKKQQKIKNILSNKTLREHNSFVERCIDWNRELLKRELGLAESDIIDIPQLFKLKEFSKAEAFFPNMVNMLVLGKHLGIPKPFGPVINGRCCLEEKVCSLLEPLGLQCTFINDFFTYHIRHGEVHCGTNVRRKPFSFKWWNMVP

binding result: binds
B1: GST-HIF-1α (575-786) (domain or fragment, human, UniProt Q16665 575-786, looked up)
chain: RSFDQLSPLESSSASPESASPQSTVTVFQQTQIQEPTANATTTTATTDELKTVTKDRMEDIKILIASPSPTHIHKETTSATSSPYRDTQSRTASPNRAGKGVIEQTEKSHPRSPNVLSVALSQRTTVPEEELNPKILALQNAQRKRKMEHDGSLFQAVGIGTLLQQPDDHAATTSLSWKRVKGCKSSEQNGMEQKTIILIPSDLACRLLGQS
